Consider 1 substance from US20220009993A1.

The assay deals with CD19 on CD19+ cells (Nalm6 and Namalwa) (human) (UniProt P15391). The assay can be described thus: cell-based or functional assay.
UniProt P15391, sequence (P15391 20-556): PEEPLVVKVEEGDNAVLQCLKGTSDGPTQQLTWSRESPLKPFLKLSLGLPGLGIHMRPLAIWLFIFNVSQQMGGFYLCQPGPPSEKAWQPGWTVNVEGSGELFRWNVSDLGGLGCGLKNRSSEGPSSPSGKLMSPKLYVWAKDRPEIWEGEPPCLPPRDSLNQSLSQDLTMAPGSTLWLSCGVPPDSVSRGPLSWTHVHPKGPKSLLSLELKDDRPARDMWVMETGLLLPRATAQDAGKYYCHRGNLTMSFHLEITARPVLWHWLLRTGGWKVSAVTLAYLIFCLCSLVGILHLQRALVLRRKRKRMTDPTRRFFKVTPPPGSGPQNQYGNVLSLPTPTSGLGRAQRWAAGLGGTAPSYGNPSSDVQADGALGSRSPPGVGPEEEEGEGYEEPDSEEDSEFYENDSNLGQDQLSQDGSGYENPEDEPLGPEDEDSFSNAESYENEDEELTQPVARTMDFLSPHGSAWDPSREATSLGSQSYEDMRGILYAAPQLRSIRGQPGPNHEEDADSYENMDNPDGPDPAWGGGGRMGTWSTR

In turn, “ARI, a second-generation anti-CD19 CAR, expressed on primary T cells from the AWARI lentiviral vector (AW promoter, SEQ ID NO 1)” displayed a specific lysis of CD19+ cells (Nalm6, Namalwa) after 48 h co-culture, relative to non-transduced T cells of 70 to 80%.
